Test results taken from paper PMC12286842.

Target: Flag–UBR4 (UBR4 tagged at its endogenous locus) (human (endogenous in HEK293T)) (UniProt Q5T4S7)
Assay: cryo-EM structure; endogenous SIFI immunoprecipitated through tagged UBR4 from HEK293T and run on Superose 6 SEC; the complex formed in cells and was co-purified; single-particle cryo-EM, AF2 models fitted in low-resolution regions

Chain of Flag–UBR4 (UBR4 tagged at its endogenous locus), Q5T4S7-1 1-5183 (enzyme) (Q5T4S7 whole entry): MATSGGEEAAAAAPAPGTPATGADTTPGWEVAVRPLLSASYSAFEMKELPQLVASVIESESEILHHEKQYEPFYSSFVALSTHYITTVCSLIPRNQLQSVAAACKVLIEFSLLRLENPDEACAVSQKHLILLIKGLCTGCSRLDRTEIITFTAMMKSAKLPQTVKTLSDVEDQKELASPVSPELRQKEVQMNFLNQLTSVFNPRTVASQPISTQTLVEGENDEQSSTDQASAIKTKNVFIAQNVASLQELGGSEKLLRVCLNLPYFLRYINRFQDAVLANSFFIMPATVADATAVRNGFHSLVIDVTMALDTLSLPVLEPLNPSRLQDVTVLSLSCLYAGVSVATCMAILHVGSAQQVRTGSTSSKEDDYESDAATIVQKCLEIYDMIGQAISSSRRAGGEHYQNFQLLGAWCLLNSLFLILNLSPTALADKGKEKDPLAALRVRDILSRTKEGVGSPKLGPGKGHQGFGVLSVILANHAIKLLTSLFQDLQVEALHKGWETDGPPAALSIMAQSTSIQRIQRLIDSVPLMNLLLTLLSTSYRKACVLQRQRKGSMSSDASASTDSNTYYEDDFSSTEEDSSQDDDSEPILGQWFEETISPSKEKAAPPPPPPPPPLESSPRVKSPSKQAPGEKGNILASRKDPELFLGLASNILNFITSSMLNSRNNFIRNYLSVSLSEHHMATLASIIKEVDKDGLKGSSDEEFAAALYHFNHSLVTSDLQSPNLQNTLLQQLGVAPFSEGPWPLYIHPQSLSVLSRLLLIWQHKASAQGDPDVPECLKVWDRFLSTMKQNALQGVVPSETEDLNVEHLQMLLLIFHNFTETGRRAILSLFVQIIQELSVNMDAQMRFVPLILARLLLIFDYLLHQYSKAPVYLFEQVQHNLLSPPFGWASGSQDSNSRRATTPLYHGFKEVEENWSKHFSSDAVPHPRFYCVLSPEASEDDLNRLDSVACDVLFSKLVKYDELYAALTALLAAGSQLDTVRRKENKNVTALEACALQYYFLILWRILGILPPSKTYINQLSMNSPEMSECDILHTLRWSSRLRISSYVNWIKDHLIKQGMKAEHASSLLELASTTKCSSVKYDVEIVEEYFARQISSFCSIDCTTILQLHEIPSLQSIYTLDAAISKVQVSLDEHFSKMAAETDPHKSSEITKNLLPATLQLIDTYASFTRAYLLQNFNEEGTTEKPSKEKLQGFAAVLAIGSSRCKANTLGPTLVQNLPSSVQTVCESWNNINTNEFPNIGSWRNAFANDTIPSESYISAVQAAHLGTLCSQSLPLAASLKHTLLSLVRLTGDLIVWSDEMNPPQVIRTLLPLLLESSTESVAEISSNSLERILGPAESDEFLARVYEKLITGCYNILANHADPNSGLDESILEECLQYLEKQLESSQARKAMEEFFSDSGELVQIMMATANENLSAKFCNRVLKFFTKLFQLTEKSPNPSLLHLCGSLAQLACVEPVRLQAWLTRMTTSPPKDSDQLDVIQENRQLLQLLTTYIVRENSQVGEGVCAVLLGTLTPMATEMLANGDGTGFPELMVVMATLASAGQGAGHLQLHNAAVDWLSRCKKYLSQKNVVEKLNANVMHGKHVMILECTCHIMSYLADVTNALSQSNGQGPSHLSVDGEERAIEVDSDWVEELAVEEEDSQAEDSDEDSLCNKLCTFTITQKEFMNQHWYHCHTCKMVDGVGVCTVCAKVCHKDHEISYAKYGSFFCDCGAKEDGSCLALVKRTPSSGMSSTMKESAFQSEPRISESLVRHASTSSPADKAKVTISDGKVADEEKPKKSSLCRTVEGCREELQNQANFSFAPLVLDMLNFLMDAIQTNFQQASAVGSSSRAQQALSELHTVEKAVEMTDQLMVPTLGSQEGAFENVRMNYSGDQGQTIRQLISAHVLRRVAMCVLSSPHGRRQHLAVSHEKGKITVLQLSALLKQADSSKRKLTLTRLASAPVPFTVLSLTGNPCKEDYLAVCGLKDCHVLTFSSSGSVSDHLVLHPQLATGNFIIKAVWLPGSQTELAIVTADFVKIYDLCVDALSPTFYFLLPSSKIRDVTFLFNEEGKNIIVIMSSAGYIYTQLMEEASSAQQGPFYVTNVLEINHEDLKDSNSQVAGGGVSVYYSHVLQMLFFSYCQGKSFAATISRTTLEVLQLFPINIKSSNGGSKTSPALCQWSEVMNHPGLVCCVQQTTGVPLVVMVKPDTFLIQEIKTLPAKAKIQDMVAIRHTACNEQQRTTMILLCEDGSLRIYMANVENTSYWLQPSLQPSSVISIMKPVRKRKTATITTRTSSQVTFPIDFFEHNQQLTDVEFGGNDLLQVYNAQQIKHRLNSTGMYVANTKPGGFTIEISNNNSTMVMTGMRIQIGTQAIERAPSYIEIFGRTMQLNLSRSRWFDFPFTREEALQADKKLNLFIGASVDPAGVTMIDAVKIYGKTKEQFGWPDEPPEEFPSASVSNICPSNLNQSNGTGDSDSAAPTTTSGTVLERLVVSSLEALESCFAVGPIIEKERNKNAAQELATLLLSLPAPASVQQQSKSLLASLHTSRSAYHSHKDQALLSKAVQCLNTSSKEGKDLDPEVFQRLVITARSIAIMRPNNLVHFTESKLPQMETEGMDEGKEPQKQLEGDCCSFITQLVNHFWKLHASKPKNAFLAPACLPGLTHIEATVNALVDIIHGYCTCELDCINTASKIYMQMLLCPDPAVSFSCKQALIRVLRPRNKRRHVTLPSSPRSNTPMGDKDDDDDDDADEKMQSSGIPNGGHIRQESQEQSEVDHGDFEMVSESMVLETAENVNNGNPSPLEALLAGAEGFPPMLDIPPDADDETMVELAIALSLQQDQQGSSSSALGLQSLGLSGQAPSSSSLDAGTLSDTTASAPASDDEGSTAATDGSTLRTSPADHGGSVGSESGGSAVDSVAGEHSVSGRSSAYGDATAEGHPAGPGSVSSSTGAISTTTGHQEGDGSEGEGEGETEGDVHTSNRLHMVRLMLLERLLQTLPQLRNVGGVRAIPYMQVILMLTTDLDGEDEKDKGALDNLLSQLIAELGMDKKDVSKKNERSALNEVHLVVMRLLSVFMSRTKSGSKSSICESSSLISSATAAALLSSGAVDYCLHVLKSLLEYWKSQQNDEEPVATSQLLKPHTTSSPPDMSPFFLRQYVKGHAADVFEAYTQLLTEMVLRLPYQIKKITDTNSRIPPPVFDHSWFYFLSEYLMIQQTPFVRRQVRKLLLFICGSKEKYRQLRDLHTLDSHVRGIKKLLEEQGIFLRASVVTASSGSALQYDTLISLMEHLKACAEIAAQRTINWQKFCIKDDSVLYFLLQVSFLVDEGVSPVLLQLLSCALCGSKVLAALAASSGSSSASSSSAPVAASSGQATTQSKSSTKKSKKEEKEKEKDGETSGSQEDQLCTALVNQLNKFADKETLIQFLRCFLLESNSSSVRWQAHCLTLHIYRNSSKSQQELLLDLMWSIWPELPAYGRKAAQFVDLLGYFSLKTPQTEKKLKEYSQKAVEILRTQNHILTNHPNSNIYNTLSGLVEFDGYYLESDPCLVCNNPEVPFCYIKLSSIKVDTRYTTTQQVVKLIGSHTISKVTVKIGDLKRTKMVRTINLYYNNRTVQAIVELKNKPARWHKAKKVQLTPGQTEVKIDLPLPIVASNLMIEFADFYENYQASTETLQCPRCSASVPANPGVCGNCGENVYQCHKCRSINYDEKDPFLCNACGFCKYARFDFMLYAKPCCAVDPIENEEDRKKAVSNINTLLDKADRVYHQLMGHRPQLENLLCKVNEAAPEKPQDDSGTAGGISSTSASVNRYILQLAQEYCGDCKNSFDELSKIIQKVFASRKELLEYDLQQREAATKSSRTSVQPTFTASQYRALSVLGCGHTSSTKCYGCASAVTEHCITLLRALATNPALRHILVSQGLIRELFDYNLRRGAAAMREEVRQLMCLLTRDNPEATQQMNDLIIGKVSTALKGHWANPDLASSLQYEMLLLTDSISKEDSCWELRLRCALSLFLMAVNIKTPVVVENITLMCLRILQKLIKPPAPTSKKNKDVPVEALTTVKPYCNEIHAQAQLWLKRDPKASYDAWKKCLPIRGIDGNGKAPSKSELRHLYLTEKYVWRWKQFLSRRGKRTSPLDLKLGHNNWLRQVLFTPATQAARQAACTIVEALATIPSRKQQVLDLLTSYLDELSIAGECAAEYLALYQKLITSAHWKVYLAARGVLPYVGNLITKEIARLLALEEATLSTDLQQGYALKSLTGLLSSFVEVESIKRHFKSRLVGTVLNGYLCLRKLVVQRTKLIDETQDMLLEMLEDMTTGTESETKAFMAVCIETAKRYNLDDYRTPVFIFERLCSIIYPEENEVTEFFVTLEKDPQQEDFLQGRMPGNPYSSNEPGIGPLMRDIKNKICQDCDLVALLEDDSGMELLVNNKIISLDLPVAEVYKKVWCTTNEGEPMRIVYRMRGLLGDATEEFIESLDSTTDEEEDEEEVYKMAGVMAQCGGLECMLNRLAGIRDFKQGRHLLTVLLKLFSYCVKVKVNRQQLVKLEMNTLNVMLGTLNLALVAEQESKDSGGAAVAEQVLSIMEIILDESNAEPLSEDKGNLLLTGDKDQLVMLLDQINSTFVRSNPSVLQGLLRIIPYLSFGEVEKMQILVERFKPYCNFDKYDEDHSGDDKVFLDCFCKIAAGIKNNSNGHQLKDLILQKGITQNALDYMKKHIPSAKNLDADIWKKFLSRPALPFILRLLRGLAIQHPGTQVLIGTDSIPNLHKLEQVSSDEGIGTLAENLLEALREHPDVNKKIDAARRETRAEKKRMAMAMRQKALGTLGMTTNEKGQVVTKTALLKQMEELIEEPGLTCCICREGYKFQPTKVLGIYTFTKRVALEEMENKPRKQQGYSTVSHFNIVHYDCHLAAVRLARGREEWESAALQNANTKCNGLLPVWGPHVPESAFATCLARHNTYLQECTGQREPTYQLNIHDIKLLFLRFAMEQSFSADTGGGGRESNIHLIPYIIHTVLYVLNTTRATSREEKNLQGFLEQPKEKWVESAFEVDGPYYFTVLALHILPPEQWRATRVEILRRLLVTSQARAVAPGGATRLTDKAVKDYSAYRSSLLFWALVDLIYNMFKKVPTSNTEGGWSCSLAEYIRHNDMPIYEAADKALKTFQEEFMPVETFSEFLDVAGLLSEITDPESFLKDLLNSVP

For “Flag–UBR4 (UBR4 tagged at its endogenous locus), Q5T4S7-1 1-5183 (enzyme)”, which stoichiometry N is on record?
The stoichiometry N was 2.
